Test results from patent US12679878B2, “CRF2 receptor agonists and their use in therapy” (SANOFI, priority 2020, dated 2026).
Starred links: 1 amine or outer side, 2 acyl side, 3 side chain; linkers in the order of their positions; H or OH if unused. Non-standard residues stand in square brackets, D forms with d. Groups on a side chain read outwards from the residue. No end group written: not given here. *: point of attachment. C18 diacid = O=C(O)CCCCCCCCCCCCCCCCC(=O)*; γGlu = O=C(O)[C@H](CCC(=O)[*:2])N[*:1]; AEEA = NCCOCCOCC(=O)O; Aib = CC(C)(N)C(=O)O

B1: SEQ ID NO: 70 (peptide)
peptide: IVLSLDVPIKLK([AEEA-AEEA-γGlu-C18 diacid])QILLEQERQKKQREQAETN[Aib]QILAQV-NH2
modifications: N-terminus assumed
SMILES: CC[C@H](C)[C@H](N)C(=O)N[C@H](C(=O)N[C@@H](CC(C)C)C(=O)N[C@@H](CO)C(=O)N[C@@H](CC(C)C)C(=O)N[C@@H](CC(=O)O)C(=O)N[C@H](C(=O)N1CCC[C@H]1C(=O)N[C@H](C(=O)N[C@@H](CCCCN)C(=O)N[C@@H](CC(C)C)C(=O)N[C@@H](CCCCNC(=O)COCCOCCNC(=O)COCCOCCNC(=O)CC[C@H](NC(=O)CCCCCCCCCCCCCCCCC(=O)O)C(=O)O)C(=O)N[C@@H](CCC(N)=O)C(=O)N[C@H](C(=O)N[C@@H](CC(C)C)C(=O)N[C@@H](CC(C)C)C(=O)N[C@@H](CCC(=O)O)C(=O)N[C@@H](CCC(N)=O)C(=O)N[C@@H](CCC(=O)O)C(=O)N[C@@H](CCCNC(=N)N)C(=O)N[C@@H](CCC(N)=O)C(=O)N[C@@H](CCCCN)C(=O)N[C@@H](CCCCN)C(=O)N[C@@H](CCC(N)=O)C(=O)N[C@@H](CCCNC(=N)N)C(=O)N[C@@H](CCC(=O)O)C(=O)N[C@@H](CCC(N)=O)C(=O)N[C@@H](C)C(=O)N[C@@H](CCC(=O)O)C(=O)N[C@H](C(=O)N[C@@H](CC(N)=O)C(=O)NC(C)(C)C(=O)N[C@@H](CCC(N)=O)C(=O)N[C@H](C(=O)N[C@@H](CC(C)C)C(=O)N[C@@H](C)C(=O)N[C@@H](CCC(N)=O)C(=O)N[C@H](C(N)=O)C(C)C)[C@@H](C)CC)[C@@H](C)O)[C@@H](C)CC)[C@@H](C)CC)C(C)C)C(C)C
B2: SEQ ID NO: 71 (peptide)
peptide: IVLSLDVPIKLK([AEEA-AEEA-γGlu-C18 diacid])K[Aib]LLEQERQKKQREQAETN[Aib]QILAQV-NH2
modifications: N-terminus assumed
SMILES: CC[C@H](C)[C@H](N)C(=O)N[C@H](C(=O)N[C@@H](CC(C)C)C(=O)N[C@@H](CO)C(=O)N[C@@H](CC(C)C)C(=O)N[C@@H](CC(=O)O)C(=O)N[C@H](C(=O)N1CCC[C@H]1C(=O)N[C@H](C(=O)N[C@@H](CCCCN)C(=O)N[C@@H](CC(C)C)C(=O)N[C@@H](CCCCNC(=O)COCCOCCNC(=O)COCCOCCNC(=O)CC[C@H](NC(=O)CCCCCCCCCCCCCCCCC(=O)O)C(=O)O)C(=O)N[C@@H](CCCCN)C(=O)NC(C)(C)C(=O)N[C@@H](CC(C)C)C(=O)N[C@@H](CC(C)C)C(=O)N[C@@H](CCC(=O)O)C(=O)N[C@@H](CCC(N)=O)C(=O)N[C@@H](CCC(=O)O)C(=O)N[C@@H](CCCNC(=N)N)C(=O)N[C@@H](CCC(N)=O)C(=O)N[C@@H](CCCCN)C(=O)N[C@@H](CCCCN)C(=O)N[C@@H](CCC(N)=O)C(=O)N[C@@H](CCCNC(=N)N)C(=O)N[C@@H](CCC(=O)O)C(=O)N[C@@H](CCC(N)=O)C(=O)N[C@@H](C)C(=O)N[C@@H](CCC(=O)O)C(=O)N[C@H](C(=O)N[C@@H](CC(N)=O)C(=O)NC(C)(C)C(=O)N[C@@H](CCC(N)=O)C(=O)N[C@H](C(=O)N[C@@H](CC(C)C)C(=O)N[C@@H](C)C(=O)N[C@@H](CCC(N)=O)C(=O)N[C@H](C(N)=O)C(C)C)[C@@H](C)CC)[C@@H](C)O)[C@@H](C)CC)C(C)C)C(C)C

Biological target: human corticotropin-releasing factor 2α (CRF2 α receptor) (human), Q13324
Sequence (Q13324 20-411): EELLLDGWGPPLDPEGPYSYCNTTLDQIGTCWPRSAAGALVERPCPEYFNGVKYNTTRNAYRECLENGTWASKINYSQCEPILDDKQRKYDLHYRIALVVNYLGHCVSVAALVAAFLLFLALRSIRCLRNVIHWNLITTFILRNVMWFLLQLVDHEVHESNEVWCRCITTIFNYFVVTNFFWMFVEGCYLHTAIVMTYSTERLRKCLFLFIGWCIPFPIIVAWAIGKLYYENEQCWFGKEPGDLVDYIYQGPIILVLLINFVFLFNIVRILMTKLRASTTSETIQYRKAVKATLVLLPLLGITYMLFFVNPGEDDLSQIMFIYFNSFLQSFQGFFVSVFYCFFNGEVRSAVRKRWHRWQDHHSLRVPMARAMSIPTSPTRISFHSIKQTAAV
Test: cell-based or functional assay

Binder | EC50 [nM], 0% HSA
B1 | 0.91 nM
B2 | 3.15 nM
